The nanobody polyreactivity screen of Harvey et al. (2022)

Experiment: yeast display, Sf9 membrane polyspecificity reagent, FACS + sequencing; frameworks hold sequencing errors
In short: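 A nanobody's polyreactivity label depends on the gate it was sorted from. Yeast display cells were stained with 10% biotinylated, detergent-solubilized Sf9 membrane reagent for 1 hour at 4 °C, enriched on streptavidin microbeads and sorted by FACS. The low and high (top ~1%) gates were set on anti-HA fluorescence for expression and streptavidin fluorescence for reagent binding.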

Sequence	polyreactivity (PSR sort gate)
QVQLVESGGGLVQAGGSLRLSCAASGRTFRYYAMGWYRQAPGKERELVAAISSSGDRTYYADSVKGRFTISRDNAKNTVYLQMNSLKPEDTAVFYCAADRGARGDYWGQGTQVTVSS	high polyreactivity
QVQLVESGGGLVQAGGSLRLSCAASGRTFRYYAMGWYRQAPGKERELVAAISWSGSSTYYADSVKGRFTISRDNAKNTVYLQMNSLKAEDTAVYFCNAKGVRGKYFDYSRVSAYDYWGQGTQVTVSS	low polyreactivity
QVQLVESGGGLVQAGGSLRLSCAASGRTFRYYAMGWYRQAPGKERELVAAITISSGSTYYADSVKGRFTISRDNAKNTVYLQMNSLKPEDTAVYYCAATRRYHFDYWGQGTQVTVSS	high polyreactivity
QVQLVESGGGLVQAGGSLRLSCAASGRTFRYYAMGWYRQAPGKERELVAAITRSGGSTNYADSVKGRFTISRDNAKNTVYLQMNSLKPEDTAVYYCNREGRSVSGYYYYWGQGTQVTVSS	high polyreactivity
QVQLVESGGGLVQAGGSLRLSCAASGRTFRYYAMGWYRQAPGKERELVAVITQSGGRTYYADSVKGRFTISRDNAKNTVYLQMNSLKPEDTAVYYCNAVFPGFFRSSPTYDYWGQGTQVTVSS	high polyreactivity
QVQLVESGGGLVQAGGSLRLSCAASGRTFRYYTMGWYRQAPGKEREFVAAISSTGGTYYADSVKGRFTISRDNAKNTVYLLMNSLKPEDTAFYYCAATFIQVVVNVQLYDYDYWGQGTQVTVSS	low polyreactivity
QVQLVESGGGLVQAGGSLRLSCAASGRTFRYYTMGWYRQAPGKEREFVAAISSTGGTYYADSVKGRFTISRDNAKNTVYLQMNSLKPEDTAVYYCNADTIYYAGDFRYDYWGQGTQVTVSS	low polyreactivity
QVQLVESGGGLVQAGGSLRLSCAASGRTFRYYTMGWYRQAPGKERELVAAISRGGRTYYADSVKGRFTISRDNGKNTVYLQMNSLKPEDTAVYNCAAQLFREYYYWGHGTQVTVSS	high polyreactivity
QVQLVESGGGLVQAGGSLRLSCAASGRTFSAYAMGWYRQATGQERELVAAISRSGGSTYYADSVKGRFTISRDNAKNTVYLQMNSLKPEDTAVYYCAAKGGSGLYNWGQGTQVTVSS	high polyreactivity
QVQLVESGGGLVQAGGSLRLSCAASGRTFSFYAMGWYRQAPGKERELVAGIDWDDGSTSYADSVKGRFTISRDNAKNTVYLQMNSLKPEDTAVYYCAAGPYAGVDPGDYYYWGQGTQVTVSS	low polyreactivity
QVQLVESGGGLVQAGGSLRLSCAASGRTFSGNAMGWYRQAPGKERELVAGISTSGGSTYYADSVKGRFTISRDNANNTVYVQMNSLKPEDTAVYYCAADRPGSFTTMDYWGQGSQVTVSS	high polyreactivity
QVQLVESGGGLVQAGGSLRLSCAASGRTFSGYAMGWYRQAPGKARELVAGITWNGGRTYYADSVKGRFTISRDNAKNTVYLQMNSLKPEDTAVYYCNKLGAVYPKYGYWGQGTQVTVSS	high polyreactivity
QVQLVESGGGLVQAGGSLRLSCAASGRTFSGYAMGWYRQAPGKEREFVAAITSSGSSTYYADSVKWRFTISRVIAKNTVYLQMNSLKPEDTAVYYCAATPQAHSERYYYQRKYDYWGQGTQVTVSS	low polyreactivity
QVQLVESGGGLVQAGGSLRLSCAASGRTFSGYAMGWYRQAPGKERELVAAISNSGGRTYYADSVKGRFTISRDNAKNTDYLQMNSLKPEDTAVYYSNAVSYWRYDYWGQGTQVTVSS	high polyreactivity
QVQLVESGGGLVQAGGSLRLSCAASGRTFSGYAMGWYRQAPGKERELVAAITSSGSSTYYADSVKGRFTISRDKAKNTVYLQMNCLKPEDTAVYYCAATPQAHSERYYSQRKYDYWGQGTQVTVSS	low polyreactivity
QVQLVESGGGLVQAGGSLRLSCAASGRTFSGYAMGWYRQAPGKERELVAAITSSGSSTYYADSVKGRFTISRDNAKNTVYLQMNSLKPEDTAVYYCAATPQAHSERYYYQRKYDYWGQGTQVTVSS	low polyreactivity
QVQLVESGGGLVQAGGSLRLSCAASGRTFSGYAMGWYRQAPGKERELVAVITYSGGSTYYADSVKGRFTISRDNAKNTVYLQMNSLKPEDTAVYYCNADYVIFYQLVEYDYWGQGTQVTVSS	low polyreactivity
QVQLVESGGGLVQAGGSLRLSCAASGRTFSHYAMGWYRKAPGKERELVDTITRNGGITYYADSVKGRFTISRDNAKNTVYLQMNSLKPEDTAVYYCNTETYHVRRLFDYWGQGTQVTVSS	low polyreactivity
QVQLVESGGGLVQAGGSLRLSCAASGRTFSHYAMGWYRQAPGKERELVAAISGSGGTTYYADSVKGRFTISRDNAKNTVYLQMNSLKPEDTAVYYCNTRGRYLMDYWGQGTQVTVSS	high polyreactivity
QVQLVESGGGLVQAGGSLRLSCAASGRTFSIYAMGCYRQAPGKEREFVAAIRDRGTSTYYADSVKGRFTISRDNAKNTVYLQMNSLKPEDTGVFYCAAVRPYKYQDRDYWGQGTQVTVSS	high polyreactivity
QVQLVESGGGLVQAGGSLRLSCAASGRTFSKYTMGWYIQAPGKERELVAAISYSGGSTYYADSVKGRFTISRDNAKNTVYLKMNSLKPEDTAVYYCAARASTYKYYYWGQGTQVTVSA	high polyreactivity
QVQLVESGGGLVQAGGSLRLSCAASGRTFSLYAMGWYRQAPGKERELVAAISWGGGSTYYADSVKGRFTISRDNAKNTVYLQMNSLKPEDTAVYYCAADDVSATKYEDDYWGQGTQVTVSS	low polyreactivity

Sequence	polyreactivity (PSR sort gate)
QVQLVESGGGLVQAGGSLRLSCAASGRTFSLYAMGWYRQAPGKERELVAAITLSAGSTYYADSVKGRFTISRDNAKNTVYLQMNSLKPEDTAVYYCNAAAYVWKSKQLLYVITYDYWGQGTQVTVSS	high polyreactivity
QVQLVESGGGLVQAGGSLRLSCAASGRTFSLYAMGWYRQAPGNDRELVAAISYNGGRTYYADSVKGRFTISRDNAKNTVYLQLNCLKQDDTAVYYCAADHGDPGGYDYWGQGTQVTVSS	high polyreactivity
QVQLVESGGGLVQAGGSLRLSCAASGRTFSPNAMGWYRQAPGKERELVASITAIGSRTYYADSVKGRFTISRDKAKNTVYLQMNSLKPEDTAVYYCAKDDELYGTKMYSWGQGTQVTVSS	low polyreactivity
QVQLVESGGGLVQAGGSLRLSCAASGRTFSQYAMGWYRQAPGKERELVAAISWSGGSTYYADSVKGRFTISRDNAKNTVYLQMNSLKPEDTAVYYCAAVGKGSARSSYPVLYDYCGQGTQVTVSS	low polyreactivity
QVQLVESGGGLVQAGGSLRLSCAASGRTFSRNAMGWYRQAPGKERELVATISRGGGITFYADSVKGRFTISRDNAKNTVYLQMNSLKPEDTAVYYCNADVRYVGLRRIVDYWGQGTQVTVSS	high polyreactivity
QVQLVESGGGLVQAGGSLRLSCAASGRTFSRNTMGWYRQAPGKERELVAAIRSGGRTDYADSVKGRFTISRDNAKNTVYLQMNSLKPEDTAVYYCATVAGVSRWRGGYWGQGTQVTVSS	low polyreactivity
QVQLVESGGGLVQAGGSLRLSCAASGRTFSRYAMGWSRQAPGKERELVASITSRGGSTYYADSVKGRFTISRDNAKNTVYLQMNSLKPEDTAVYYCNVKPTYSTRYWEDYWGQGTQVTVSS	high polyreactivity
QVQLVESGGGLVQAGGSLRLSCAASGRTFSRYAMGWYRPAPGKERELVAAISWRGSSTYYADSVKGRFTISRDNAKNTVYLQMNSLKPEYTAVYYCNTVTYPYVPALFDYWGQGTQVTVSS	high polyreactivity
QVQLVESGGGLVQAGGSLRLSCAASGRTFSRYAMGWYRQAPGKERELVAAISRGGGSTNYADSVKGRFTISRDNAKNTVYLQMNSLKPEDTAVYYCASEYRYDWYTYGSWGQGTQVTVSS	high polyreactivity
QVQLVESGGGLVQAGGSLRLSCAASGRTFSRYAMGWYRQAPGKERELVAAISRSGGITYYADSVKGRFTISRDYAKNTVYLQMNSLKPEDTAVYYCAKVYPRVGYDYWGQGTQVTVSS	high polyreactivity
QVQLVESGGGLVQAGGSLRLSCAASGRTFSRYAMGWYRQAPGKERELVAAITRSGGSTYYADSVKGRFTISRDNAKNTVYLQMNSLKPEDTAVYYCATERNLRNYDYWGQGTQVTVSS	high polyreactivity
QVQLVESGGGLVQAGGSLRLSCAASGRTFSRYAMGWYRQAPGKERELVAAITWSGGRTYYADSVKGRFTISSDNAKNTVYLQMNSLKPEDTAVYYCAASYRCYKHADPLYNYWGQGTQVTVSS	low polyreactivity
QVQLVESGGGLVQAGGSLRLSCAASGRTFSRYAMGWYRQAPGKERELVAAITYSGGRTYYADSVKGRFTISRDNAKNTVYLQMNSLKPEDTAVYYCAKGTTSDPGYGYWGQGTQVTVSS	low polyreactivity
QVQLVESGGGLVQAGGSLRLSCAASGRTFSRYAMGWYRQSPGKERELVAAITSGGGSTYYADSVKGRFTISRDNAKNTVYLQMNSLKPEDTAVYYCAVRSAPIVYVYVASWWSLYDYWGQGTQVTVSS	low polyreactivity
QVQLVESGGGLVQAGGSLRLSCAASGRTFSRYAMGWYRRAPGKERELVAAITKSGGSTYYADSVKGRFTISRDNAKITVYLQMNSLKPEDTAVYYCAVRYGGRFFRKYDYWGQGTQVTVSS	high polyreactivity
QVQLVESGGGLVQAGGSLRLSCAASGRTFSRYVMGWYRQAPGKERELVATISRSGGSTFYADSVKGRFTISRDTAKNTVYLQMNSLKPEDTAVYYCNKKVQGYQVTYGYCGQGTQVTVSS	high polyreactivity
QVQLVESGGGLVQAGGSLRLSCAASGRTFSSNAMGWYRQAPGKERELVASISFRGGRTYYADSVKGRFTISRDNAKNTVYLQMNSLKPVDTAVYYCATAYYYFSPSRADGEYWGQGTQVTVSS	high polyreactivity
QVQLVESGGGLVQAGGSLRLSCAASGRTFSSYAMGGYRKAPGKERELVAAISKRGVRTSYADSVKGRFTISRDNAKNTVYLQMNRLKPEDTAVYYCNATLGRTTAVFKYYWGQGTQVTVSS	high polyreactivity
QVQLVESGGGLVQAGGSLRLSCAASGRTFSSYTMGWYRQAPGKEREMVAAISKSGASTYYADSVKGRFTISRDNAKNTVYLQMNSLKPEDTAVYYLAARAYPFKIDGYWGQGTQVTVSS	high polyreactivity
QVQLVESGGGLVQAGGSLRLSCAASGRTFSTNAMGLYRQAPGKEREFVAAITGSGGSTYYADSVKGRFTISRDNAKNTVYLQINSLKPEDTAVYYCAKRSAWHTYRYGYWGQGTQVTVSS	high polyreactivity
QVQLVESGGGLVQAGGSLRLSCAASGRTFSTNAMGWYRQAPGKERELVAAISASGGSTYYADSVKGRFTISRDNAKNTVYLQMNSLKPEDTAVYYCAAYPGQWRTGYDYWGQGTQVTVSS	high polyreactivity
